Results published in publication PMC11618376 (Nature Communications, 2024).

Target: T1, Gdi1 (yeast, UniProt P39958 1-451)
T1 sequence (looked up): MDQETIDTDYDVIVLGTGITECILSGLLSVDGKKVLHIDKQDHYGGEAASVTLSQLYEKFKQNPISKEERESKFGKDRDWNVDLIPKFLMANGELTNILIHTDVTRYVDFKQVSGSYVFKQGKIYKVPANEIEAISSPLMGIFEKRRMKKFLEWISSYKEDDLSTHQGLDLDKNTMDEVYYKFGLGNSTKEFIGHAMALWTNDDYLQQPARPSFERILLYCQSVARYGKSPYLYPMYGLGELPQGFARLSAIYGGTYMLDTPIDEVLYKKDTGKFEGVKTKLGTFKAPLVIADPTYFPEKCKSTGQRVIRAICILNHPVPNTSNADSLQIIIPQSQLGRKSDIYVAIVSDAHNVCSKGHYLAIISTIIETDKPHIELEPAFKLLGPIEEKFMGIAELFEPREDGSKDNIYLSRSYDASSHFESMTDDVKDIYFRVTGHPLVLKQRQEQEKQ
Assay: SEC

B1: prenylated Rab6-mantGDP (natural protein, S. cerevisiae, UniProt Q99260 1-215, looked up)
chain: MSRSGKSLTKYKIVFLGEQGVGKTSLITRFMYDTFDDHYQATIGIDFLSKTMYLDDKTIRLQLWDTAGQERFRSLIPSYIRDSRVAIIVYDITKRKSFEYIDKWIEDVKNERGDENVILCIVGNKSDLSDERQISTEEGEKKAKLLGAKIFMETSTKAGYNVKALFKKIAKSLPEFQNSESTPLDSENANSANQNKPGVIDISTAEEQEQSACQC
modifications: C-terminal cysteines prenylated (geranylgeranyl)
binding result: binds
